For assay [1], the target named is glycosylated prostate specific antigen (human) (UniProt P07288). As to the kind of experiment: BLI; […] (0.4 μg mL^-1) […].
Assay [2] deals with neuraminidase-treated glycosylated human PSA (human) (UniProt P07288). As to the kind of experiment: BLI; […] (15 μg mL^-1) […], in buffer.

In assay [1], Sambucus nigra lectin (natural protein) had a maximum signal to noise (PSA against no PSA) of 12.8 and a signal to noise (PSA against no PSA) of 1.5. Also, in assay [2], the reduction in signal against fresh glycosylated PSA turned out to be 50%.

The record behind these values is PMC9969229.
